Measurements as given in patent publication US10774129B2, “Complexes of types of MHC class II that bind to collagen type II peptides and their use on diagnosis and treatment” (FRAUNHOFER-GESELLSCHAFT ZUR FÖRDERUNG DER ANGEWANDTEN …, priority 2011, dated 2020).
Square brackets hold non-standard residues; d marks the D form. Ends that are not written are not given here. Cit = NC(=O)NCCC[C@H](N)C(=O)O

Key:
Experiment in all cases: in vitro binding assay to recombinant MHC class II protein
[1] = biological target: MHC class II of the HLA DRB1 0404 genotype (Homo sapiens, UniProt P01903+P01911, A100R/A169T/F76Y/I96L/K127E/L162R/M171V/N62H/P40V/Q125Y/R42H/S133A/S149N/S66Y/V209L/W38E); parameters: key: *0101: the listing of the allele in the column for the allele indicates binding; *0401: “0401” in the “Binds to 0401” column indicates binding of the peptide to MHC class II of the HLA DRB1 0401 genotype; *0404: the listing of the allele in the column for the allele indicates binding; *0405: the listing of the allele in the column for the allele indicates binding; *0408: the listing of the allele in the column for the allele indicates binding; *1001: the listing of the allele in the column for the allele indicates binding; “no” or no data indicates no binding to a protein of that genotype
Description: (§1) Binding of the peptides to recombinant MHC class II protein of various alleles has been confirmed in an in vitro binding assay and the results are shown in Tables 1, 2 and 3. In table 1, 2 and 3, the listing of the allele in the column for the allele indicates binding. Thus “0401” in the “Binds to 0401” column indicates binding of the peptide to MHC class II of the HLA DRB1 0401 genotype. “no” or no data indicates no binding to a protein of that genotype. Empty boxes indicate no binding or that binding has not been determined. In the tables it is also indicated if the peptide has a citrulline residue, where “yes” indicates the presence of a citrulline residue and “no” indicates the absence of a citrulline residue.

[2] = biological target: MHC class II of the HLA DRB1 0101 genotype (Homo sapiens, UniProt P01903+P01911, A100R/D57E/F55L/F60I/F76Y/I96L/L162R/M171V/P40L/Q125E/R42F/V115G/Y59C); parameters: key: *0101: the listing of the allele in the column for the allele indicates binding; *0401: “0401” in the “Binds to 0401” column indicates binding of the peptide to MHC class II of the HLA DRB1 0401 genotype; *0404: the listing of the allele in the column for the allele indicates binding; *0405: the listing of the allele in the column for the allele indicates binding; *0408: the listing of the allele in the column for the allele indicates binding; *1001: the listing of the allele in the column for the allele indicates binding; “no” or no data indicates no binding to a protein of that genotype
Description: as §1

[3] = biological target: MHC class II of the HLA DRB1 0401 genotype (Homo sapiens, UniProt P01903+P01911, A100K/A169T/F76Y/I96L/K127E/L162R/M171V/N62H/P40V/Q125Y/R42H/S133A/S149N/S66Y/V115G/V209L/W38E); parameters: key to Binds to 0401: *0101: the listing of the allele in the column for the allele indicates binding; *0401: “0401” in the “Binds to 0401” column indicates binding of the peptide to MHC class II of the HLA DRB1 0401 genotype; *0404: the listing of the allele in the column for the allele indicates binding; *0405: the listing of the allele in the column for the allele indicates binding; *0408: the listing of the allele in the column for the allele indicates binding; *1001: the listing of the allele in the column for the allele indicates binding; “no” or no data indicates no binding to a protein of that genotype; conditions: recombinant MHC class II, HLA DRB1 0401
Description: as §1
Thus for these peptides no binding to HLA-DR0401 was observed when citrulline was exchanged with the original amino acid arginine (Table 4). No binding of the citrullinated peptides was seen to HLA-DR 03 or 02 variants.

[4] = biological target: MHC class II of the HLA DRB1 0405 genotype (Homo sapiens, UniProt P01903+P01911, A100R/A169T/D86S/F76Y/I96L/K127E/L162R/M171V/N62H/P40V/Q125Y/R42H/S133A/S149N/S66Y/V115G/V209L/W38E); parameters: key: *0101: the listing of the allele in the column for the allele indicates binding; *0401: “0401” in the “Binds to 0401” column indicates binding of the peptide to MHC class II of the HLA DRB1 0401 genotype; *0404: the listing of the allele in the column for the allele indicates binding; *0405: the listing of the allele in the column for the allele indicates binding; *0408: the listing of the allele in the column for the allele indicates binding; *1001: the listing of the allele in the column for the allele indicates binding; “no” or no data indicates no binding to a protein of that genotype
Description: as §1

| Substance | Binds to 0404 [1] | Binds to 0101 [2] | Binds to 0401 [3] | Binds to 0405 [4] |
| --- | --- | --- | --- | --- |
| vimentin 14: human vimentin peptide, not citrullinated (SAVRLRSSVPGVRLL; listed as Homo sapiens) | *0404 |  |  |  |
| type II collagen 257: human collagen type II peptide, not citrullinated (GDRGETGAVGAPGAP; listed as Homo sapiens) | *0404 |  |  |  |
| vimentin 93: citrullinated human vimentin peptide (MST[Cit]SVSSSSY[Cit][Cit]MF; listed as Homo sapiens) | *0404 | no | *0401 |  |
| vimentin 41: human vimentin peptide, not citrullinated (NTLQSFRQDVDNASL; listed as Homo sapiens) | *0404 |  | *0401 | *0405 |
| vimentin 16: human vimentin peptide, not citrullinated (GVRLLQDSVDFSLAD; listed as Homo sapiens) |  | no | *0401 |  |
| vimentin 42: human vimentin peptide, not citrullinated (FRQDVDNASLARLDL; listed as Homo sapiens) | no | *0101 | *0401 |  |
| type II collagen 178: human collagen type II peptide, not citrullinated (PSGFQGLPGPPGPPG; listed as Homo sapiens) |  |  |  | *0405 |
| type II collagen 137: human collagen type II peptide, not citrullinated (GEPGIAGFKGEQGPK; listed as Homo sapiens) | *0404 | *0101 | *0401 |  |
| vimentin 150: citrullinated human vimentin peptide (FAVEAANYQDTIG[Cit]L; listed as Homo sapiens) |  |  | *0401 |  |
| vimentin 55: human vimentin peptide, not citrullinated (DVRQQYESVAAKNLQ; listed as Homo sapiens) |  | *0101 | *0401 |  |
| vimentin 99: citrullinated human vimentin peptide (VTTST[Cit]TYSLGSAL[Cit]; listed as Homo sapiens) |  | *0101 | *0401 |  |
| type II collagen 272: human collagen type II peptide, not citrullinated (GHRGFTGLQGLPGPP; listed as Homo sapiens) |  |  |  | *0405 |
| vimentin 156: citrullinated human vimentin peptide (XEYQDLLNVKMALDI; citrullinated; MOD_RES (1)..(1) Citrulline; listed as Homo sapiens) |  | *0101 |  |  |

Now from value to substance:

| Binds to 0404 [1] | Binds to 0101 [2] | Binds to 0401 [3] | Binds to 0405 [4] | Substance |
| --- | --- | --- | --- | --- |
|  | *0101 |  |  | vimentin 132: citrullinated human vimentin peptide (F[Cit]QDVDNASLA[Cit]LDL; listed as Homo sapiens) |
| *0404 |  |  |  | vimentin 44: human vimentin peptide, not citrullinated (ARLDLERKVESLQEE; listed as Homo sapiens) |
| *0404 |  |  |  | type II collagen 224: human collagen type II peptide, not citrullinated (GPPGATGFPGAAGRV; listed as Homo sapiens) |
| *0404 |  | *0401 |  | type II collagen 195: human collagen type II peptide, not citrullinated (PGLQGMPGERGAAGI; listed as Homo sapiens) |
| *0404 |  |  |  | type II collagen 166: human collagen type II peptide, not citrullinated (VMGFPGPKGANGEPG; listed as Homo sapiens) |
|  | *0101 | no |  | vimentin 13: human vimentin peptide, not citrullinated (YATRSSAVRLRSSVP; listed as Homo sapiens) |
| No |  | *0401 |  | vimentin 159: citrullinated human vimentin peptide (XKLLEGEESXISLPL; citrullinated; MOD_RES (1)..(1) Citrulline; MOD_RES (10)..(10) Citrulline; listed as Homo sapiens) |
|  |  | *0401 | *0405 | vimentin 98: citrullinated human vimentin peptide (SS[Cit]SYVTTST[Cit]TYSL; listed as Homo sapiens) |
|  |  | *0401 |  | vimentin 145: citrullinated human vimentin peptide (STEY[Cit][Cit]QVQSLTCEV; listed as Homo sapiens) |
| *0404 | *0101 | no |  | vimentin 79: human vimentin peptide, not citrullinated (MALDIEIATYRKLLE; listed as Homo sapiens) |
| no | *0101 |  |  | vimentin 27: human vimentin peptide, not citrullinated (LLAELEQLKGQGKSR; listed as Homo sapiens) |
|  |  | *0401 |  | vimentin 20: human vimentin peptide, not citrullinated (FKNTRTNEKVELQEL; listed as Homo sapiens) |
| *0404 | *0101 |  |  | vimentin 32: human vimentin peptide, not citrullinated (ELRRQVDQLTNDKAR; listed as Homo sapiens) |
| *0404 |  | *0401 | *0405 | type II collagen 332: citrullinated human collagen type II peptide ([Cit]GPPGPQGA[Cit]GFPGT; listed as Homo sapiens) |
|  |  | *0401 |  | vimentin 59: human vimentin peptide, not citrullinated (YKSKFADLSEAANRN; listed as Homo sapiens) |
| *0404 |  |  |  | vimentin 92: human vimentin peptide, not citrullinated (GQVINETSQHHDDLE; listed as Homo sapiens) |
|  | *0101 | *0401 |  | type II collagen 138: human collagen type II peptide, not citrullinated (AGFKGEQGPKGEPGP; listed as Homo sapiens) |
|  |  | *0401 |  | vimentin 71: human vimentin peptide, not citrullinated (FAVEAANYQDTIGRL; listed as Homo sapiens) |
| *0404 |  |  |  | type II collagen 100: human collagen type II peptide, not citrullinated (PQGARGFPGTPGLPG; listed as Homo sapiens) |
|  | *0101 | *0401 |  | vimentin 95: citrullinated human vimentin peptide (Y[Cit][Cit]MFGGPGTAS[Cit]PS; listed as Homo sapiens) |
